{"source": "patent US20100291638", "tested_on": "T1, DNA polymerase clone 74 (uncultured hot spring virus (Great Boiling Spring))", "T1 sequence": "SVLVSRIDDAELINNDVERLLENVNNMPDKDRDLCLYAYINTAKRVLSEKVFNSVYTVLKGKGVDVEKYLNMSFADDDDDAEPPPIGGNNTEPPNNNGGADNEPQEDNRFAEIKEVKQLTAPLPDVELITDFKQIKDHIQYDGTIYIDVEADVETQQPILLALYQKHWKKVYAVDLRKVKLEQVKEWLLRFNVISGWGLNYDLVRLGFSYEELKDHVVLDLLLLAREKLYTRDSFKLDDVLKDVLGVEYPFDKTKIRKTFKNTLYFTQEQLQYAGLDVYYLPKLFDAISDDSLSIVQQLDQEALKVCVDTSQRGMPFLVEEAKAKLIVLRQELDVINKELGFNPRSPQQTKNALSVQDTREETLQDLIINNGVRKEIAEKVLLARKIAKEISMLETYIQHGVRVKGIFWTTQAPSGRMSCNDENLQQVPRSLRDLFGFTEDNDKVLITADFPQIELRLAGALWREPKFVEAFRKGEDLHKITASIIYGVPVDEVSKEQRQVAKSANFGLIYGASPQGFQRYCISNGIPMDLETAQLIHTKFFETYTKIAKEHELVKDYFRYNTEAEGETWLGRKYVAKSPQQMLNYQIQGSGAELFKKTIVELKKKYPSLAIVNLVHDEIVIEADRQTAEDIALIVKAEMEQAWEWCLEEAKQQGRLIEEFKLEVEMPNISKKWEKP", "conditions": "dNTP incorporation; background <500"}
{"substance": "activated calf thymus DNA", "values": [{"measurement": "activity", "result": 47400, "unit": "cpm"}]}
